# Measurements published in the supplement of paper PMC9112550, “Optimization of the antimicrobial peptide Bac7 by deep mutational scanning” (BMC Biology, 2022).
# Test system: Escherichia coli TOP10
# Test: shrunken log2 fold change of peptide-encoding DNA abundance (4.5 h post-induction vs induction); higher = less antimicrobial activity (less host growth inhibition)
# Details: time post-induction: 4.5 h; library: site-saturation at positions 5, 18, 19, 20
# 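Further: peptides expressed intracellularly from a pBAD plasmid library in pooled LB shake-flask culture, induced with 0.3% L-arabinose, DNA abundance read by NGS, three biological replicates, DESeq2 with apeglm shrinkage.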
row,Sequence,shrunken log2 fold change
1,RRIRMRPPRLPRPRPRPHTYPRP,-0.209
2,RRIRCRPPRLPRPRPRPCPDPRP,-0.612
3,RRIRFRPPRLPRPRPRPCRMPRP,-0.168
4,RRIRNRPPRLPRPRPRPLWCPRP,-0.0608
5,RRIRCRPPRLPRPRPRPCLTPRP,-0.17
6,RRIRFRPPRLPRPRPRPLNLPRP,-0.542
7,RRIRHRPPRLPRPRPRPLISPRP,-0.387
8,RRIRQRPPRLPRPRPRPPEQPRP,0.00242
9,RRIRRRPPRLPRPRPRPFTAPRP,0.128
10,RRIRYRPPRLPRPRPRPHKKPRP,-0.0787
11,RRIRPRPPRLPRPRPRPNYNPRP,-0.676
12,RRIRSRPPRLPRPRPRPVACPRP,0.271
13,RRIRTRPPRLPRPRPRPAVKPRP,0.106
14,RRIRVRPPRLPRPRPRPNFYPRP,-0.146
15,RRIRMRPPRLPRPRPRPIWYPRP,-0.158
16,RRIRRRPPRLPRPRPRPLLLPRP,0.0522
17,RRIRHRPPRLPRPRPRPTSCPRP,-0.125
18,RRIRERPPRLPRPRPRPGKEPRP,0.0125
19,RRIRSRPPRLPRPRPRPDYVPRP,0.063
20,RRIRTRPPRLPRPRPRPEIAPRP,-0.11

row,Sequence,shrunken log2 fold change
1,RRIRNRPPRLPRPRPRPCWFPRP,-0.00192
2,RRIRSRPPRLPRPRPRPWKRPRP,-0.000813
3,RRIRYRPPRLPRPRPRPDCQPRP,-0.0127
4,RRIRMRPPRLPRPRPRPYRNPRP,-0.18
5,RRIRPRPPRLPRPRPRPQVNPRP,-0.279
6,RRIRCRPPRLPRPRPRPWCHPRP,-0.463
7,RRIRRRPPRLPRPRPRPPMNPRP,0.172
8,RRIRFRPPRLPRPRPRPDMQPRP,-0.313
9,RRIRMRPPRLPRPRPRPYDSPRP,0.00275
10,RRIRMRPPRLPRPRPRPCTVPRP,-0.0102
11,RRIRGRPPRLPRPRPRPKERPRP,0.00594
12,RRIRCRPPRLPRPRPRPCIKPRP,-0.426
13,RRIRNRPPRLPRPRPRPPKYPRP,-0.349
14,RRIRQRPPRLPRPRPRPTDWPRP,0.0907
15,RRIRTRPPRLPRPRPRPEKTPRP,0.051
16,RRIRSRPPRLPRPRPRPHWTPRP,-0.0566
17,RRIRWRPPRLPRPRPRPIPSPRP,0.0317
18,RRIRQRPPRLPRPRPRPTCPPRP,-0.0183
19,RRIRTRPPRLPRPRPRPRRPPRP,0.493
20,RRIRFRPPRLPRPRPRPCFGPRP,-0.0611

row,Sequence,shrunken log2 fold change
1,RRIRHRPPRLPRPRPRPHQRPRP,0.0129
2,RRIRHRPPRLPRPRPRPRYKPRP,-0.424
3,RRIRIRPPRLPRPRPRPHQPPRP,-0.421
4,RRIRERPPRLPRPRPRPTGTPRP,-0.0482
5,RRIRHRPPRLPRPRPRPNQMPRP,-0.0904
6,RRIRLRPPRLPRPRPRPFKAPRP,0.181
7,RRIRERPPRLPRPRPRPAMNPRP,-0.28
8,RRIRRRPPRLPRPRPRPFEPPRP,0.152
9,RRIRHRPPRLPRPRPRPRHMPRP,-0.0251
10,RRIRFRPPRLPRPRPRPARMPRP,0.296
11,RRIRDRPPRLPRPRPRPFGYPRP,-0.342
12,RRIRKRPPRLPRPRPRPDLEPRP,0.0158
13,RRIRYRPPRLPRPRPRPRITPRP,-0.382
14,RRIRCRPPRLPRPRPRPPDAPRP,0.354
15,RRIRTRPPRLPRPRPRPTSNPRP,-0.43
16,RRIRHRPPRLPRPRPRPVRGPRP,0.328
17,RRIRSRPPRLPRPRPRPEPDPRP,0.953
18,RRIRFRPPRLPRPRPRPPTYPRP,-0.0496
19,RRIRLRPPRLPRPRPRPCNWPRP,0.0532
20,RRIRERPPRLPRPRPRPTPEPRP,0.122
